In patent US20230332164A1 (SYNLOGIC OPERATING, published 2023):

T1: recombinant SIRPα (Rndsystems) (mouse, UniProt P97797 32-373, limits assumed)
T1 construct: also called recombinant SIRPalpha; recombinant mSIRPα
T1 sequence (looked up): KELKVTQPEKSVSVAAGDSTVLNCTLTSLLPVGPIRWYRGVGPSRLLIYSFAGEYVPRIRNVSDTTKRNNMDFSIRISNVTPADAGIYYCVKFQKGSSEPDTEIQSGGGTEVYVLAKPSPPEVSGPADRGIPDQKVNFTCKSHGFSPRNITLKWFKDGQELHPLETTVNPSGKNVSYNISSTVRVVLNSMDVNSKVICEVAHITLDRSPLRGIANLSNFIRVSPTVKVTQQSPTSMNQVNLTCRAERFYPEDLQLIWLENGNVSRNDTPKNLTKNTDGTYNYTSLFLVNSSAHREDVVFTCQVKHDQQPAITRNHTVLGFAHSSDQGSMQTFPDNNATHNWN

B1: mCD40L1 (47-260), secreted by SYN3366 (ligand)
chain: VDYKDDDDKQLGGGHRRLDKVEEEVNLHEDFVFIKKLKRCNKGEGSLSLLNCEEMRRQFEDLVKDITLNKEEKKENSFEMQRGDEDPQIAAHVVSEANSNAASVLQWAKKGYYTMKSNLVMLENGKQLTVKREGLYYVYTQVTFCSNREPSSQRPFIVGLWLKPSSGSERILLKAANTHSSSQLCEQQSVHLGGVFELQAGASVFVNVTEASQVIHRVGFSSFGLLKLKGELNSKLEGKPIPNPLLGLDSTDPNSSSVDHHHHHH
B2: mCD40L2 (112-260), secreted by SYN3367 (ligand)
chain: VDYKDDDDKQLGGGMQRGDEDPQIAAHVVSEANSNAASVLQWAKKGYYTMKSNLVMLENGKQLTVKREGLYYVYTQVTFCSNREPSSQRPFIVGLWLKPSSGSERILLKAANTHSSSQLCEQQSVHLGGVFELQAGASVFVNVTEASQVIHRVGFSSFGLLKLKGELNSKLEGKPIPNPLLGLDSTDPNSSSVDHHHHHH
B3: mFD6x2SIRPα, secreted by SYN3160 (receptor)
chain: VDYKDDDDKQLGGSEEEVQIIQPDKSVSVAAGESAILHCTITSLFPVGPIQWFRGAGPARVLIYNQRQGPFPRVTTISETTRRENMDFSISISNITPADAGTYYCIKFRKGSPDTEFKSGAGTELSVRAKPSGGGGSGGGGSEEEVQIIQPDKSVSVAAGESAILHCTITSLFPVGPIQWFRGAGPARVLIYNQRQGPFPRVTTISETTRRENMDFSISISNITPADAGTYYCIKFRKGSPDTEFKSGAGTELSVRAKPSGSGELGGSGKPIPNPLLGLDSTGSGHHHHHH
notes: also called mFD62xSIRPα; FD1x2SIRPα
B4: CD47 on mouse CT26 cells (receptor, UniProt Q61735 19-303, looked up)
chain: QLLFSNVNSIEFTSCNETVVIPCIVRNVEAQSTEEMFVKWKLNKSYIFIYDGNKNSTTTDQNFTSAKISVSDLINGIASLKMDKRDAMVGNYTCEVTELSREGKTVIELKNRTVSWFSPNEKILIVIFPILAILLFWGKFGILTLKYKSSHTNKRIILLLVAGLVLTVIVVVGAILLIPGEKPVKNASGLGLIVISTGILILLQYNVFMTAFGMTSFTIAILITQVLGYVLALVGLCLCIMACEPVHGPLLISGLGIIALAELLGLVYMKFVASNQRTIQPPRNR
notes: whole, on cells; also called CD47 on CT26 cells; murine CD47 on CT26 cells
B5: WT mSIRPα (32-373), secreted by SYN2996 (receptor)
chain: VDYKDDDDKQLGGGKELKVTQPEKSVSVAAGDSTVLNCTLTSLLPVGPIKWYRGVGQSRLLIYSFTGEHFPRVTNVSDATKRNNMDFSIRISNVTPEDAGTYYCVKFQKGPSEPDTEIQSGGGTEVYVLAKPSPPEVSGPADRGIPDQKVNFTCKSHGFSPRNITLKWFKDGQELHHLETTVNPSGKNVSYNISSTVRVVLNSMDVHSKVICEVAHITLDRSPLRGIANLSNFIRVSPTVKVTQQSPTSMNQVNLTCRAERFYPEDLQLIWLENGNVSRNDTPKNLTKNTDGTYNYTSLFLVNSSAHREDVVFTCQVKHDQQPAITRNHTVLGLAHSSDQGSMQTFPGNNATHNWNKGELNSKLEGKPIPNPLLGLDSTDPNSSSVDHHHHHH
B6: anti-mCD47 scFv, secreted by SYN3161 (scFv)
scFv: QVKLLQSGAALVKPGASVKMSCQASGYSFTDYWVTWVKQSHGQSLEWIGEIYPSNTVTNFNDNFKGKATLTVDKSTSTAYMELSRLTSEDSAIYYCTRIGNSGYRVGWFIYWGQGTLVTVLSGGGGSGGGGSGGGGSDTVLTQSPALAVSPGERVTISCKASESVSSHMHWYQQKPGQQPKLLIYKASNLASGVPARFSGSGSGTDFTLTIDPVEADDTATYFCQQGWNGPFTFGAGTRLELKRADAAGSGELGGSGKPIPNPLLGLDSTGSGHHHHHH
B7: mCV1SIRPα, secreted by SYN3159 (receptor)
chain: VDYKDDDDKQLGGSEEELQIIQPDKSVLVAAGETATLRCTITSLFPVGPIQWFRGAGPGRVLIYNQRQGPFPRVTTVSDTTKRNNMDFSIRIGNITPADAGTYYCIKFRKGSPDDVEFKSGAGTELSVRAKPSGSGELGGSGKPIPNPLLGLDSTGSGHHHHHH
notes: also called PhoA-FLAG-CV1sirpα-V5-HIS

Columns and labels:
[1] = target: IgG (control coating); assay: ELISA, IgG-coated plate, clarified bacterial supernatant
[2] = target: B4; assay: flow cytometry on CT26 cells, 10x concentrated supernatant
[3] = target: T1, recombinant SIRPα (Rndsystems); assay: competition flow cytometry on CT26 cells
[4] = target: IgG (control coating); assay: ELISA, IgG-coated plate, bacterial supernatant

**Q.** How did the ELISA signal (unit not given) [1] turn out when B1 was run?
**A.** The ELISA signal (unit not given) was 0.052.

**Q.** For B2, which ELISA signal (unit not given) [1] is on record?
**A.** The ELISA signal (unit not given) was 0.052.

**Q.** Does B3 bind [2]?
**A.** Result: binds

**Q.** Does B4 bind [3]?
**A.** Result: binds

**Q.** For B5, which ELISA signal (unit not given) [4] is on record?
**A.** Its ELISA signal (unit not given) is 0.056.

**Q.** How did the ELISA signal (unit not given) [4] turn out when B6 was run?
**A.** Its ELISA signal (unit not given) is 0.067.

**Q.** Does B7 bind [2]?
**A.** Result: binds
